Measured values published in the DeepSol protein solubility set.

Assay: soluble on expression in E. coli; label from the status in PepcDB or PDB records

Sequence	soluble on expression in E. coli
QIKSQGCRISRTFLLICSRGRKQRMKDSENKGASSPDMEPSYGGGLFDMVKGGAGRLFSNLKDNLKDTLKDTSSRVIQSVTSYTKGDLDFTYVTSRIIVMSFPLDNVDIGFRNQVDDIRSFLDSRHLDHYTVYNLSPKSYRTAKFHSRVSECSWPIRQAPSLHNLFAVCRNMYNWLLQNPKNVCVVHCLDGRAASSILVGAMFIFCNLYSTPGPAIRLLYAKRPGIGLSPSHRRYLGYMCDLLADKPYRPHFKPLTIKSITVSPIPFFNKQRNGCRPYCDVLIGETKIYSTCTDFERMKEYRVQDGKIFIPLNITVQGDVVVSMYHLRSTIGSRLQAKVTNTQIFQLQFHTGFIPLDTTVLKFTKPELDACDVPEKYPQLFQVTLDVELQPHDKVIDLTPPWEHYCTKDVNPSILFSSHQEHQDTLALGGQAPIDIPPDNPRHYGQSGFFASLCWQDQKSEKSFCEEDHAALVNQESEQSDDELLTLSSPHGNANGDKPHGVKKPSKKQQEPAAPPPPEDVDLLGLEGSAMSNSFSPPAAPPTNSELLSDLFGGGGAAGPTQAGQSGVEDVFHPSGPASTQSTPRRSATSTSASPTLRVGEGATFDPFGAPSKPSGQDLLGSFLNTSSASSDPFLQPTRSPSPTVHASSTPAVNIQPDVSGGWDWHAKPGGFGMGSKSAATSPTGSSHGTPTHQSKPQTLDPFADLGTLGSSSFASKPTTPTGLGGGFPPLSSPQKASPQPMGGGWQQGGAYNWQQPQPKPQPSMPHSSPQNRPNYNVSFSAMPGGQNERGKGSSNLEGKQKAADFEDLLSGQGFNAHKDKKGPRTIAEMRKEEMAKEMDPEKLKILEWIEGKERNIRALLSTMHTVLWAGETKWKPVGMADLVTPEQVKKVYRKAVLVVHPDKATGQPYEQYAKMIFMELNDAWSEFENQGQKPLY	soluble
QIQLTQSPSSLSASVGDRVTITCSASSSVNSSALFWYQQKPGKAPKPWIYLTSNLASGVPSRFSGSGSGTDYTLTISSLQPEDFATYYCQQISGNPWTFGQGTKVEIKRADAAPTVSIFPPSSEQLTSGGASVVCFLNNFYPKDINVKWKIDGSERQNGVLNSWTDQDSKDSTYSMSSTLTLTKDEYERHNSYTCEATHKTSTSPIVKSFNRNEC	soluble
QLTPTFYDNSCPNVSNIVRDTIVNELRSDPRIAASILRLHFHDCFVNGCDASILLDNTTSFRTEKDAFGNANSARGFPVIDRMKAAVESACPRTVSCADLLTIAAQQSVTLAGGPSWRVPLGRRDSLQAFLDLANANLPAPFFTLPQLKDSFRNVGLNRSSDLVALSGGHTFGKNQCRFIMDRLYNFSNTGLPDPTLNTTYLQTLRGLCPLNGNLSALVDFDLRTPTIFDNKYYVNLEEQKGLIQSDQELFSSPNATDTIPLVRSFANSTQTFFNAFVEAMDRMGNITPLTGTQGQIRLNCRVVNSNSLLHDMVEVVDFVSSM	soluble
QQEKEFLESYPQNCPPDALPGTPGNLDSAQEKALAELRKLLEDAGFIERLDDSTLLRFLRARKFDVQLAKEMFENCEKWRKDYGTDTILQDFHYDEKPLIAKFYPQYYHKTDKDGRPVYFEELGAVNLHEMNKVTSEERMLKNLVWEYESVVQYRLPACSRAAGHLVETSCTIMDLKGISISSAYSVMSYVREASYISQNYYPERMGKFYIINAPFGFSTAFRLFKPFLDPVTVSKIFILGSSYQKELLKQIPAENLPVKFGGKSEVDESKGGLYLSDIGPWRDPKYIGPEGEAPE	soluble
QQFPNECQLDQLNALEPSHVLKAEAGRIEVWDHHAPQLRCSGVSFVRYIIESKGLYLPSFFSTAKLSFVAKGEGLMGRVVPGCAETFQDSSVFQPGGGSPFGEGQGQGQQGQGQGHQGQGQGQQGQQGQQGQQSQGQGFRDMHQKVEHIRTGDTIATHPGVAQWFYNDGNQPLVIVSVLDLASHQNQLDRNPRPFYLAGNNPQGQVWIEGREQQPQKNILNGFTPEVLAKAFKIDVRTAQQLQNQQDNRGNIIRVQGPFSVIRPPLRSQRPQEEVNGLEETICSARCTDNLDDPSNADVYKPQLGYISTLNSYDLPILRFLRLSALRGSIRQNAMVLPQWNANANAVLYVTDGEAHVQVVNDNGDRVFDGQVSQGQLLSIPQGFSVVKRATSEQFRWIEFKTNANAQINTLAGRTSVLRGLPLEVISNGYQISLEEARRVKFNTIETTLTHSSGPASYGGPRKADA	soluble
QSKFKKYSKMPLASGMTGKDVAEKMLHDNGIYDVRVTSTPGMLTDHYNPANKTVNLSEGVYGSNSVAAAAVAAHECGHAVQHARAYAPLKMRS	not soluble
QTVQSTSKGSDYIVAVTACTTGIAHTYMAEEALKKKAAEMGVGIKVETNGASGVGNKLTSSDIARAKGVIIAADKAVEMDRFDGKPLVSRPVADGIKKSEDLINIILDNKAQTY	not soluble
QVKEVQIRFEKDALHNIMEMQYKNYQLSKENIDMVNQKYHDLKHQINILKTQSYTGKSTNYLEKMEREIRVYETQNKTGNQILDAVLTNKAMICQNKEIELKFIVDGEALSFMDDMDVSALFGNMLDNAIESAEKQQEKQKRLIWLYVTREKQFVRIRTENYCDEKIHFKNGMPVTTKKDRRLHGYGMKSIKSTVEKYHGSVVAAQENNWFELKILLPAGR	not soluble
QVQLQESGGGLVQAGDSLKLSCEASGDSIGTYVIGWFRQAPGKERIYLATIGRNLVGPSDFYTRYADSVKGRFAVSRDNAKNTVNLQMNSLKPEDTAVYYCAAKTTTWGGNDPNNWNYWGQGTQVTVSS	soluble
QVQLQESGGGLVQAGGSLRLSCAASGSIFSINSMDWDRQAPGKQRELVATITSGGSTNYADSVKGRFTISRDNAKNTVYLQMNSLKPEDTAVYYCNANVKTWAGMTRDYWGQGTQVTVSSHHHHHH	soluble
QVQLQQPGTELVKPGASVKLSCKASGYTFTGFWIHWVKQRPGQGLEWIGHINPGNGGTNYNEKFKRMATLTVDKSSSTAYMQLSSLTSEDSAVYYCARSYSNYVRAMDYWGQGTSVTVSSAKTTAPSVYPLVPVCGGTTGSSVTLGCLVKGYFPEPVTLTWNSGSLSSGVHTFPALLQSGLYTLSSSVTVTSNTWPSQTITCNVAHPASSTKVDKKIEP	soluble
QVRQSPQSLTVWEGETTILNCSYEDSTFDYFPWYRQFPGKSPALLIAISLVSNKKEDGRFTIFFNKREKKLSLHITDSQPGDSATYFCAATGSFNKLTFGAGTRLAVSPY	soluble
QWGSMRMPSDRISSGMAFSSVAQEAGFQNDDIILAVDGRPVDALASGFMRSVIQARQVEVLRQGRREIVHVPHDMMKRVLKANSGFMSIQVPFVIDSVMPQGTAYACQLKAGDSITAVNGKLMPDASDVIGAIRSHAGDTIALSIARAGEELTITLPVDTGGLIGVSLRPLDAIYTIDHIRYSLFEAIPAGIAQGMGTMRSYVSDMKYVFTKEGAGQIGGFGTLGSLFPASWNWPQFWAMTALLS	not soluble
RCPKGSKAYGSHCYALFLSPKSWTDADLACQKRPSGNLVSVLSGAEGSFVSSLVKSIGNSYSYVWIGLHDPTQGTEPNGEGWEWSSSDVMNYFAWERNPSTISSPGHCASLSRSTAFLRWKDYNCNVRLPYVCKFTD	soluble
REEELNTEKVVAAIANPVENEVRKVWEDVVEKIEQRVAVIEQASHKLLQNKVSEEILSKAKVEAHKLAGSLGMFGSDEGSQIAQEIESLLDNGKKLKASGGKHLGQVVEALHQELENLKSG	soluble
REQFGRDVMVVVDLSGSMAEKDFTSTNGLKISRLDAVKKVLNDFVKTRKGDRLGLILFGDAAFVQTPFTADHKVWLDLLNQTHVEMAGKSTHLGDAIGLTIKRFEDSNNSQPLSTTSREKVAIILTDGNDTDSYVPPMDAAKVAKVKGVRIHMIAIGDPQTVGEQALDMDTINTIADASGGQAFQALNQDELINAYAEISKLEPQLYQSTTYRT	not soluble
REVADTAYDRTLLASARAIADGLYEKDGTLRADVPYVALDTFAYDSAGRIFYQVNDIHGRMISGYENLPAAPADTLRTDDYPALAKFYDGVYQGVDVRVVSLLQPVSEPSMSGMAEIRVAETEGARERMARS	not soluble
RHMRIAVIGGGSSYTPELVKGLLDISEDVRIDEVIFYDIDEEKQKIVVDFVKRLVKDRFKVLISDTFEGAVVDAKYVIFQFRPGGLKGRENDEGIPLKYGLIGQETTGVGGFSAALRAFPIVEEYVDTVRKTSNATIVNFTNPSGHITEFVRNYLEYEKFIGLCNVPINFIREIAEMFSARLEDVFLKYYGLNHLSFIEKVFVKGEDVTEKVFENLKLKLSNIPDEDFPTWFYDSVRLIVNPYLRYYLMEKKMFKKISTHELRAREVMKIEKELFEKYRTAVEIPEELTKRGGSMYSTAAAHLIRDLETDEGKIHIVNTRNNGSIENLPDDYVLEIPCYVRSGRVHTLSQGKGDHFALSFIHAVKMYERLTIEAYLKRSKKLALKALLSHPLGPDVEDAKDLLEEILEANREYVKLG	soluble
RHNLIQRKRELDKQNELYRAIISASFAFVFQIDTEARFSFVSPSVEDFTGYRPDMLNGEPISILGSDEQAIKEARDYLARVLNDGEAIQVRGHPIETRSGNTVYGDIRAEPIYEPSVASSARTTENIIGAQVMVRDAS	not soluble
RKEIQPIRELAKAATLMSSRLDVPEVSERGSNELKAAVRAFNKMNRRIDSHIKDREMLFSAISHDLKTPIACLKLRAEMLDDDADRERFIRLSNDLDLMVKGALQCIKETDIHEEIEPINFTQLIQHISSNIADAPDTIRIHGEIRTHFAGK	not soluble
RLHRLPRDCQELFQVGERQSGLFEIQPQGSPPFLVNCKMTSDGGWTVIQRRHDGSVDFNRPWEAYKAGFGDPHGEFWLGLEKVHSITGDRNSRLAVQLRDWDGNAELLQFSVHLGGEDTAYSLQLTAPVAGQLGATTVPPSGLSVPFSTWDQDHDLRRDKNCAKSLSGGWWFGTCSHSNLNGQYFRSIPQQRQKLKKGIFWKTWRGRYYPLQATTMLIQPMAAEAAS	soluble
RLSDTLMKQALSSVITQEKKRLKSQPKSIAQDIQPPNSMIKNALDEKDSHPFGDCFSDDEFLAIHLYTSCLYRPINHHLRYAPKNDVAPVVEAMNSGLAKLAQYPDYQVSGQLHRGIKQKMDDGEVMSRFKPGNTYRDDAFMSTSTRMDVTEEFTSDVTLHLQSSSAVNIGPFSKNPYEDEALIPPLTPFKVTGLHKQDDRWHVHLNEIAESSDE	not soluble
RPVREVGMYNMAMLMRSTGQSSFGQSVRIAENFLNEFPRSSHREQMAAILVESYFTGKDYNSSLRSIQKIAQPTASILAAKQFVLNRMAEQKEAAGYDSEALSFVSSSISMGNKGEYFPEAYFLRGNLRYRAGDFPTAAADYRAYISAAGDRDAANLPLGYYRLGYSLFNAERYDMALEAFKEYVSRSGIAPNLSADAYARIGDCRYMKRDFHGAREAYSMAYRVYPSGGDYALLRRARLEGLAKQYADQIQTLDKLIREFPDSRHLTAALYEKGCGAVLSGKHNVAEEAFNAVVKRSPDSREARQSSLQLGLLYYNTGRTKEAIRTYQRIIDRYPRSEETTVALSDLRSIYLEEDRIDEYSTYVRGLKDKVSIAPSETEQLGFLSAERKYRRRQPDARRDLEAYLERYPQGSDRHKAELYLADLDYQAGNADAAYNRYSRLVNSPGLPEDYKIDARLRLGRMQYERKEYKAALQSFQSVLDTDGAEAVRDQAVQGVTESAYADKDYRRVIDVIAGLKNQAALPHTLRLYRAKSYQALKMNREAIADYELLAEDFSTATGAEAVVMQAQLEMEAKRLSKAKSILEKFIAKSTPQQYWLARGFILLSDIYKKEGDTFTARQYLESLEKNYPNHEDDIHEQIAQRLE	not soluble
